T1: acylglycerol kinase (AGK) (human, UniProt Q53H12 1-422)
T1 sequence (looked up): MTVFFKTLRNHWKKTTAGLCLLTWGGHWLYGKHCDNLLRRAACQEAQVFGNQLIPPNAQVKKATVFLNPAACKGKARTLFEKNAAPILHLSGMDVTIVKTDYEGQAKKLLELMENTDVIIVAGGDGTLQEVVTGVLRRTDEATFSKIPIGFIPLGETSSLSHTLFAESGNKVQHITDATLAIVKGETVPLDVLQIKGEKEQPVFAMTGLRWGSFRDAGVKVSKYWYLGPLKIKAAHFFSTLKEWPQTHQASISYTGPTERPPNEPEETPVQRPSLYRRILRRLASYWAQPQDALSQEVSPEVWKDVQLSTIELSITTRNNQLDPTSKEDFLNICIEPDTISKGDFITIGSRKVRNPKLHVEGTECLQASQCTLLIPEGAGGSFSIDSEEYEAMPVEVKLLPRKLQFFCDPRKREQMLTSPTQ

B1: Tim22 (natural protein, human, UniProt Q9Y584 1-194, looked up)
chain: MAAAAPNAGGSAPETAGSAEAPLQYSLLLQYLVGDKRQPRLLEPGSLGGIPSPAKSEEQKMIEKAMESCAFKAALACVGGFVLGGAFGVFTAGIDTNVGFDPKDPYRTPTAKEVLKDMGQRGMSYAKNFAIVGAMFSCTECLIESYRGTSDWKNSVISGCITGGAIGFRAGLKAGAIGCGGFAAFSAAIDYYLR
B2: Tim10a (natural protein, human, UniProt P62072 1-90, looked up)
chain: MDPLRAQQLAAELEVEMMADMYNRMTSACHRKCVPPHYKEAELSKGESVCLDRCVSKYLDIHERMGKKLTELSMQDEELMKRVQQSSGPA
B3: Tim9 (natural protein, human, UniProt Q9Y5J7 1-89, looked up)
chain: MAAQIPESDQIKQFKEFLGTYNKLTETCFLDCVKDFTTREVKPEETTCSEHCLQKYLKMTQRISMRFQEYHIQQNEALAAKAGLLGQPR
B4: Tim29 (natural protein, human, UniProt Q9BSF4 32-260, looked up)
chain: GSWARALLRDYAEACRDASAEARARPGRAAVYVGLLGGAAACFTLAPSEGAFEEALLEASGTLLLLAPATRNRESEAFVQRLLWLRGRGRLRYVNLGLCSLVYEAPFDAQASLYQARCRYLQPRWTDFPGRVLDVGFVGRWWVLGAWMRDCDINDDEFLHLPAHLRVVGPQQLHSETNERLFDEKYKPVVLTDDQVDQALWEEQVLQKEKKDRLALSQAHSLVQAEAPR
B5: Tim10b (natural protein, human, UniProt Q9Y5J6 1-103, looked up)
chain: MERQQQQQQQLRNLRDFLLVYNRMTELCFQRCVPSLHHRALDAEEEACLHSCAGKLIHSNHRLMAAYVQLMPALVQRRIADYEAASAVPGVAAEQPGVSPSGS

Columns and labels:
Experiment in all cases: cryo-EM structure
Tim29 = molecular target: B4
Tim22 = molecular target: B1
[1] = molecular target: T1, acylglycerol kinase (AGK)
Tim10b = molecular target: B5
Tim10a = molecular target: B2

Does B1 bind (Tim29)?
Result: binds

Does B2 bind (Tim22)?
Result: binds

Does B2 bind (Tim29)?
Result: binds

Does B2 bind [1]?
Result: binds

Does B2 bind (Tim10b)?
Result: binds

Does B3 bind (Tim22)?
Result: binds

Does B3 bind (Tim29)?
Result: binds

Does B3 bind [1]?
Result: binds

Does B3 bind (Tim10b)?
Result: binds

And the “stoichiometry N” value (Tim10a)?
The value was 1 Tim9:Tim10a (3:3 in the hexamer).

Does B4 bind [1]?
Result: binds

What does the source list for B5?
binding result (Tim29): binds; binding result [1]: binds

Reference: article doi:10.1101/869289 (bioRxiv, 2019)
